5 molecules from patent US20230212319A1, “NOVEL ANTIGEN BINDING DOMAINS AND SYNTHETIC ANTIGEN RECEPTORS INCORPORATING THE SAME” (University of Southern California, priority 2020, published 2023) can be followed below.

What all share (assay type): cell-based
Test [1] concerns RAJI-CD19-KO cells. Briefly: JNG assay, co-culture with RAJI-CD19-KO cells. The note with it: co-culture with Raji-CD19-KO. A digest of the protocol: (§1)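 Jurkat-NFAT-GFP (JNG) cells stably expressing SAR constructs via lentiviral transduction and puromycin/blasticidin selection were cocultured with target cells at E:T ~1:2 for ~4–18 h. NFAT-driven GFP was measured by FACS versus parental JNG cells; scores +/- to 5+ denote ~5–50% GFP-positive cells.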

Test [2] deals with L363 cells. The experiment in a line: JNG assay, co-culture with L363 cells. The note with it: co-culture with L363. The gist of the method:
as §1

The subject of test [3] is Nalm6 cells. The experiment in a line: JNG assay, co-culture with Nalm6 cells. The note with it: co-culture with Nalm6. A digest of the protocol: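 Jurkat NFAT-GFP reporter cells stably expressing lentivirally transduced SARs, drug-selected where possible, were co-cultured with target cells at E:T ≈1:2 for ~4–18 h. GFP measured by FACS; scored +/- to 5+ (~5–50% GFP+ cells) above parental reporter cells.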

The subject of test [4] is U266 cells. The experiment in a line: JNG NFAT-GFP induction on co-culture with U266.
The subject of test [5] is RAJI cells. The experiment in a line: JNG assay, co-culture with RAJI cells. The note with it: JNG cells expressing construct, co-culture with Raji. The gist of the method: as §1

B1: 22220 (protein)
chain: MALPVTALLLPLALLLHAARPACEVQLLESGGGLIQPGGSLRLSCAASGFTFSSHAMTWVRQAPGKGLEWVSAISGSGDYTHYADSVKGRFTISRDNSKNTVYLQMNSLRAEDSAVYYCAKDEDGGSLLGHRGQGTLVTVSSGTGAIGFLRTAEFDIQMTQSPSSLSASVGDRVTITCKASDHINNWLAWYQQKPGQAPKLLIYGATTLETGVPSRFSGSGSGTDYTLTISSLQPEDFATYYCQQSWNTPWTFGQGTKLEIKRLEDLKNVFPPEVAVFEPSKAEIAHTQKATLVCLATGFYPDHVELSWWVNGKEVHSGVCTDPQPLKEQPALNDSRYCLSSRLRVSATFWQNPRNHFRCQVQFYGLSENDEWTQDRAKPVTQIVSAEAWGRADCGITSASYHQGVLSATILYEILLGKATLYAVLVSALVLMAMVKRKDSRGRAKRSGSGATNFSLLKQAGDVEENPGPTSATMDWIWRILFLVGAATGAHSGPEVQLVESGGGLVQAGGSLRLSCAASGRTFSMGWFRQAPGKEREFVAAITYSGGSPYYADSVKGRFTISRDNAKNTVYLQMNSLKPEDTAVYYCAANPTYGSDWNAENWGQGTQVTVSSGSGGGGSGGGGSGGGGSFEQVQLQQPGAELVKPGASVKMSCKASGYAFSSYWINWMKQKPGQGLEWIGQIYPGDGDTNYNGKFKGRATLTADTSSSTAYMQLSSLTSEDSAVYFCARSITTVVGCAMDYWGQGTSVTVSSTRIQNPDPAVYQLRDSKSSDKSVCLFTDFDSQTNVSQSKDSDVYITDKCVLDMRSMDFKSNSAVAWSNKSDFACANAFNNSIIPEDTFFPSPESSCDVKLVEKSFETDTNLNFQNLSVIGFRILLLKVAGFNLLMTLRLWSSRAKRSGSGVKQTLNFDLLKLAGDVESNPGPSRGHMTEYKPTVRLATRDDVPRAVRTLAAAFADYPATRHTVDPDRHIERVTELQELFLTRVGLDIGKVWVADDGAAVAVWTTPESVEAGAVFAEIGPRMAELSGSRLAAQQQMEGLLAPHRPKEPAWFLATVGVSPDHQGKGLGSAVVLPGVEAAERAGVPAFLETSAPRNLPFYERLGFTVTADVEVPEGPRTWCMTRKPGA
For the molecule B1, the “NFAT-GFP ASSAY: Raji-CD19-KO” value in test [1] is “+ (refer to approximately 5%, 10%, 20%, 30%, 40% and 50% GFP positive cells)”. Moreover, in test [2], the “NFAT-GFP ASSAY: L363” value was “+/- (refer to approximately 5%, 10%, 20%, 30%, 40% and 50% GFP positive cells)”. Further, in test [3], the “NFAT-GFP ASSAY: Nalm6” value is “+/- (refer to approximately 5%, 10%, 20%, 30%, 40% and 50% GFP positive cells)”. For the same molecule, in test [4], the “NFAT-GFP ASSAY: U266” value is “+ (refer to approximately 5%, 10%, 20%, 30%, 40% and 50% GFP positive cells)”.

B2: 22245 (protein)
chain: B1 chain
For B2, the “NFAT-GFP ASSAY: Raji-CD19-KO” value in test [1] was “+ (refer to approximately 5%, 10%, 20%, 30%, 40% and 50% GFP positive cells)”. Also, the “NFAT-GFP ASSAY: L363” value in test [2] was “+/- (refer to approximately 5%, 10%, 20%, 30%, 40% and 50% GFP positive cells)”. In addition, the “NFAT-GFP ASSAY: Nalm6” value in test [3] is “+/- (refer to approximately 5%, 10%, 20%, 30%, 40% and 50% GFP positive cells)”. The “NFAT-GFP ASSAY: U266” value in test [4] is “+ (refer to approximately 5%, 10%, 20%, 30%, 40% and 50% GFP positive cells)”.

B3: 22160 (protein)
chain: MALPVTALLLPLALLLHAARPACEVQLLESGGGLIQPGGSLRLSCAASGFTFSSHAMTWVRQAPGKGLEWVSAISGSGDYTHYADSVKGRFTISRDNSKNTVYLQMNSLRAEDSAVYYCAKDEDGGSLLGHRGQGTLVTVSSGTGGGGSGGGGSGGGGSEFDIQMTQSPSSLSASVGDRVTITCKASQDVGIAVAWYQQKPGKVPKLLIYWASTRHTGVPDRFSGSGSGTDFTLTISSLQPEDVATYYCQQYSSYPYTFGQGTKVEIKRLEADVSPKPTIFLPSIAETKLQKAGTYLCLLEKFFPDVIKIHWQEKKSNTILGSQEGNTMKTNDTYMKFSWLTVPEKSLDKEHRCIVRHENNKNGVDQEIIFPPIKTDVITMDPKDNCSKDANDTLLLQLTNTSAYYMYLLLLLKSVVYFAIITCCLLRRTAFCCNGEKSRAKRSGSGATNFSLLKQAGDVEENPGPTSMDWIWRILFLVGAATGAHSGPQVQLQESGGGLAQAGGSLRLSCAASGRTFSMGWFRQAPGKEREFVAAITYSGGSPYYASSVRGRFTISRDNAKNTVYLQMNSLKPEDTAVYYCAANPTYGSDWNAENWGQGTQVTVSSGSGGGGSGGGGSGGGGSFEQVQLQQPGAELVKPGASVKMSCKASGYAFSSYWINWMKQKPGQGLEWIGQIYPGDGDTNYNGKFKGRATLTADTSSSTAYMQLSSLTSEDSAVYFCARSITTVVGCAMDYWGQGTSVTVSSTRPHTKPSVFVMKNGTNVACLVKEFYPKDIRINLVSSKKITEFDPAIVISPSGKYNAVKLGKYEDSNSVTCSVQHDNKTVHSTDFEVKTDSTDHVKPKETENTKQPSKSCHKPKAIVHTEKVNMMSLTVLGLRMLFAKTVAVNFLLTAKLFFLRAKRSGSGVKQTLNFDLLKLAGDVESNPGPSRGHMTEYKPTVRLATRDDVPRAVRTLAAAFADYPATRHTVDPDRHIERVTELQELFLTRVGLDIGKVWVADDGAAVAVWTTPESVEAGAVFAEIGPRMAELSGSRLAAQQQMEGLLAPHRPKEPAWFLATVGVSPDHQGKGLGSAVVLPGVEAAERAGVPAFLETSAPRNLPFYERLGFTVTADVEVPEGPRTWCMTRKPGA
Turning to B3, in test [5], the “NFAT-GFP ASSAY: Raji” value was 2+ (refer to approximately 5%, 10%, 20%, 30%, 40% and 50% GFP positive cells). Further, the “NFAT-GFP ASSAY: L363” value in test [2] is “+ (refer to approximately 5%, 10%, 20%, 30%, 40% and 50% GFP positive cells)”. In addition, the “NFAT-GFP ASSAY: Nalm6” value in test [3] was “+ (refer to approximately 5%, 10%, 20%, 30%, 40% and 50% GFP positive cells)”. In test [4], the “NFAT-GFP ASSAY: U266” value is 3+ (refer to approximately 5%, 10%, 20%, 30%, 40% and 50% GFP positive cells).

B4: 22246 (protein)
chain: MALPVTALLLPLALLLHAARPACEVQLLESGGGLIQPGGSLRLSCAASGFTFSSHAMTWVRQAPGKGLEWVSAISGSGDYTHYADSVKGRFTISRDNSKNTVYLQMNSLRAEDSAVYYCAKDEDGGSLLGHRGQGTLVTVSSGTGPQGIFGQPGYINEFDIQMTQSPSSLSASVGDRVTITCKASDHINNWLAWYQQKPGQAPKLLIYGATTLETGVPSRFSGSGSGTDYTLTISSLQPEDFATYYCQQSWNTPWTFGQGTKLEIKRLEDLKNVFPPEVAVFEPSKAEIAHTQKATLVCLATGFYPDHVELSWWVNGKEVHSGVCTDPQPLKEQPALNDSRYCLSSRLRVSATFWQNPRNHFRCQVQFYGLSENDEWTQDRAKPVTQIVSAEAWGRADCGITSASYHQGVLSATILYEILLGKATLYAVLVSALVLMAMVKRKDSRGRAKRSGSGATNFSLLKQAGDVEENPGPTSATMDWIWRILFLVGAATGAHSGPEVQLVESGGGLVQAGGSLRLSCAASGRTFSMGWFRQAPGKEREFVAAITYSGGSPYYADSVKGRFTISRDNAKNTVYLQMNSLKPEDTAVYYCAANPTYGSDWNAENWGQGTQVTVSSGSGGGGSGGGGSGGGGSFEQVQLQQPGAELVKPGASVKMSCKASGYAFSSYWINWMKQKPGQGLEWIGQIYPGDGDTNYNGKFKGRATLTADTSSSTAYMQLSSLTSEDSAVYFCARSITTVVGCAMDYWGQGTSVTVSSTRIQNPDPAVYQLRDSKSSDKSVCLFTDFDSQTNVSQSKDSDVYITDKCVLDMRSMDFKSNSAVAWSNKSDFACANAFNNSIIPEDTFFPSPESSCDVKLVEKSFETDTNLNFQNLSVIGFRILLLKVAGFNLLMTLRLWSSRAKRSGSGVKQTLNFDLLKLAGDVESNPGPSRGHMTEYKPTVRLATRDDVPRAVRTLAAAFADYPATRHTVDPDRHIERVTELQELFLTRVGLDIGKVWVADDGAAVAVWTTPESVEAGAVFAEIGPRMAELSGSRLAAQQQMEGLLAPHRPKEPAWFLATVGVSPDHQGKGLGSAVVLPGVEAAERAGVPAFLETSAPRNLPFYERLGFTVTADVEVPEGPRTWCMTRKPGA
For the molecule B4, the “NFAT-GFP ASSAY: L363” value in test [2] is “+ (refer to approximately 5%, 10%, 20%, 30%, 40% and 50% GFP positive cells)”. In addition, in test [3], the “NFAT-GFP ASSAY: Nalm6” value was “+ (refer to approximately 5%, 10%, 20%, 30%, 40% and 50% GFP positive cells)”. The “NFAT-GFP ASSAY: U266” value in test [4] is 2+ (refer to approximately 5%, 10%, 20%, 30%, 40% and 50% GFP positive cells).

B5: 22224 (protein)
chain: MALPVTALLLPLALLLHAARPDIQMTQSPSSLSASVGDRVTITCKASDHINNWLAWYQQKPGQAPKLLIYGATTLETGVPSRFSGSGSGTDYTLTISSLQPEDFATYYCQQSWNTPWTFGQGTKLEIKRLEDLKNVFPPEVAVFEPSEAEISHTQKATLVCLATGFYPDHVELSWWVNGKEVHSGVCTDPQPLKEQPALNDSRYCLSSRLRVSATFWQNPRNHFRCQVQFYGLSENDEWTQDRAKPVTQIVSAEAWGRADCGFTSESYQQGVLSATILYEILLGKATLYAVLVSALVLMAMVKRKDSRGRAKRSGSGATNFSLLKQAGDVEENPGPTSATMDWIWRILFLVGAATGAHSGPEVQLVESGGGLVQAGGSLRLSCAASGRTFTMGWFRQAPGKEREFVAAISLSPTLAYYADSVKGRFTISRDNAKNTVVLQMNSLKPEDTALYYCAADRKSVMSIRPDYWGQGTQVTVSSGSALRRLLGLFGFEQVQLQQPGAELVKPGASVKMSCKASGYAFSSYWINWMKQKPGQGLEWIGQIYPGDGDTNYNGKFKGRATLTADTSSSTAYMQLSSLTSEDSAVYFCARSITTVVGCAMDYWGQGTSVTVSSTRIQNPDPAVYQLRDSKSSDKSVCLFTDFDSQTNVSQSKDSDVYITDKCVLDMRSMDFKSNSAVAWSNKSDFACANAFNNSIIPEDTFFPSPESSCDVKLVEKSFETDTNLNFQNLSVIGFRILLLKVAGFNLLMTLRLWSSRAKRSGSGVKQTLNFDLLKLAGDVESNPGPSRGHMTEYKPTVRLATRDDVPRAVRTLAAAFADYPATRHTVDPDRHIERVTELQELFLTRVGLDIGKVWVADDGAAVAVWTTPESVEAGAVFAEIGPRMAELSGSRLAAQQQMEGLLAPHRPKEPAWFLATVGVSPDHQGKGLGSAVVLPGVEAAERAGVPAFLETSAPRNLPFYERLGFTVTADVEVPEGPRTWCMTRKPGA
As to B5, the “NFAT-GFP ASSAY: Raji” value in test [5] is “+ (refer to approximately 5%, 10%, 20%, 30%, 40% and 50% GFP positive cells)”. For the same molecule, the “NFAT-GFP ASSAY: Raji-CD19-KO” value in test [1] was 2+ (refer to approximately 5%, 10%, 20%, 30%, 40% and 50% GFP positive cells). Moreover, the “NFAT-GFP ASSAY: L363” value in test [2] was 2+ (refer to approximately 5%, 10%, 20%, 30%, 40% and 50% GFP positive cells). For the same molecule, in test [4], the “NFAT-GFP ASSAY: U266” value is 4+ (refer to approximately 5%, 10%, 20%, 30%, 40% and 50% GFP positive cells).
